{"source": "paper PMC10441670", "key": {"[1]": {"test_system": "MHV68UNGΔN-Ls (murine gammaherpesvirus 68 / mouse chimera)", "assay": "fluorescence anisotropy", "conditions": "N15 of strand 1 = abasic (AP) site made from U by UNG; G opposite"}, "[2]": {"test_system": "MHV68UNG (murine gammaherpesvirus 68)", "assay": "fluorescence anisotropy", "conditions": "N15 of strand 1 = abasic (AP) site made from U by UNG; G opposite"}}, "data": [{"sequence": "AGAAAAGGGGAAAGNAAAGAGGAAAGGTGAGGAGGT / ACCTCCTCACCTTTCCTCTTTGCTTTCCCCTTTTCT [AP:G dsDNA (fluorescein)]", "values": [{"measurement": "Kd", "setting": "[1]", "result": 751, "unit": "nM"}, {"measurement": "Kd", "setting": "[2]", "result": 680, "unit": "nM"}]}]}
